Experimental data: publication doi:10.1101/2025.09.11.675134, “Biodistribution-Driven Discovery Identifies a Glycosidase-Cleavable Linker to Reprogram Radiotheranostics” (bioRxiv, 2025)
Like-named read-outs stand apart in the source and are kept apart here. Positions of bridges follow the written chain, without caps; N, C: chain ends. Non-standard residues stand in square brackets, D forms with d. Residues, ends and D or L forms follow the SMILES beside them. *: point of attachment. DOTA = O=C(O)CN1CCN(CC(=O)O)CCN(CC(=O)*)CCN(CC(=O)O)CC1

Assay: Ex vivo biodistribution screen of 111In-labeled DOTA-TATE derivatives in normal mice
Parameters: species or system athymic nude mice
Settings: 2 h post-injection; for tissue uptake at 2 h: athymic nude, mouse, iv, 1 ug per mouse, total radioactivity; for tissue uptake at 2 h / Kidney uptake: normal athymic nude mice; for Relative kidney retention, % rel. to DOTA-TATE: normal mice, 111In-DOTA-TATE set as 100%; for Kidney uptake: n = 2–4
Method: The panel of 10 compounds were then tested in an initial biodistribution screen of 9 organs assessed in non-tumor-bearing mice at specific timepoints following administration of the radioconjugates. Each agent was initially labeled with ^111In, a long-lived gamma-emitting radioisotope suitable for biodistribution studies, with high radiochemical yields and purity (Fig. S12). The compounds were then dosed (1.55 ± 0.12 MBq; 1 μg per mouse) in healthy athymic nude mice via intravenous (i.v.) injection in phosphate-buffered saline (PBS; vehicle). After 2 hours, the mice were sacrificed and ex vivo biodistribution analysis was performed (Fig. 2). […] This was an expected finding because this variant was designed to bind serum albumin.
Radiolabeling and In Vivo Evaluation of DOTA-TATE Variants:
Biodistribution, PET Quantification, and Dosimetry
Radiolabeling: To perform the initial biodistribution screen, radiolabeling of 10 compounds, including DOTA-TATE, was carried out using 111In (Cardinal Health, Arbutus, MD, USA), an affordable and readily available gamma -emitting radioisotope with a moderate half -life (2.83 days), which affords efficient DOTA radiolabeling and facilitates handling. 111InCl3 (28 – 36 MBq) was diluted with 0.4 M NH 4OAc buffer (pH 5.2) and combined with DOTA -TATE variants (20 μg). The solution was mixed well and then incubated at 90 °C for 30 min.
Radiolabeling efficiency and radiochemical purity were determined by radio -TLC and radio - HPLC. Radiochemical yield was >95% and the material was used without further purification.
The specific activity was 1.55 ± 0.12 TBq/g (41.9 ± 3.2 Ci/g). […]
Radio-instant thin-layer chromatography (radio-iTLC) was performed using silicic acid-impregnated glass microfiber paper strips (iTLC-SA, Varian, Lake Forest, CA, USA) as the stationary phase, and 50 mM EDTA in 100 mM NH4OAc (pH 5.5) as the mobile phase, analyzed with a radio-TLC scanner (AR-2000, Eckert-Ziegler, Wilmington, MA, USA). For Ac-225, equilibration was allowed for at least 12 hours before scanning the TLC strips to confirm initial scans. Radio-HPLC analysis (Agilent 1260 Infinity II, Agilent Technologies Inc., Santa Clara, CA, USA) was conducted on a TSK- Octadecyl-4PW column (5 µm, 4.6 mm ID × 15 cm, Tosoh
Co. Tokyo, Japan) with gradient elution using 0.1% trifluoroacetic acid in water as mobile phase A and 0.1% trifluoroacetic acid in acetonitrile as Mobile phase B. The elution sequence was 0-5 […]
PET imaging and biodistribution: For initial biodistribution screen studies, normal mice were administered 1.4 – 1.8 MBq (1 μg) of 111In-DOTA-TATE variants via tail vein injection and biodistribution studies were conducted at 2 hours post -injection (n = 2 – 4 per cohort).
For studies involving three variants (DOTA -TATE, DOTA-MVK(ε)-TATE, and DOTA-β-Gal-TATE), AR42J cells (5 × 10^6 cells per mouse) were subcutaneously inoculated into the right shoulder of the mice. Tumors were allowed to grow for 3 weeks, reaching a volume of 100 –200 mm³ before being used in subsequent experiments. For biodistribution or PET imaging studies, mice bearing subcutaneous AR42J tumors were administered 1.4 – 1.8 MBq (1 μg) of 111In-labeled DOTA-TATE variants or 2.7 – 4.9 MBq (1 μg) of 86Y-labeled DOTA-TATE variants via tail vein injection. Biodistribution studies with 111In-labeled DOTA -TATE variants were performed 1 hour post -injection (n = 3 per cohort), while studies with 86Y-labeled DOTA-TATE variants were conducted at 1, 4, and 24 hours post -injection (n = 3 per cohort). Mice were euthanized by CO2 asphyxiation, and 10 tissues, including tumors, were collected. All samples were weighed and counted on a gamma counter (2480 Wizard 3, Perkin Elmer Inc., Waltham, MA, USA). Results are presented as percentage of injected activity per gram (%IA/g) and mean values ± standard deviations.
PET imaging to assess the uptake of three 86Y-labeled DOTA-TATE variants (2.7 – 4.9 MBq, 1 […]

[1] = in vivo, i.v. 1 μg, ex vivo, mean (± SD), n = 2–4, read-out: Kidney uptake
[2] = blood, i.v. 1 μg (1.4–1.8 MBq), ex vivo gamma counting, mean, n = 2–4, read-out: Blood uptake
[3] = femur, i.v. 1 μg, ex vivo, mean, n = 2–4, read-out: Femur uptake
[4] = heart, i.v. 1 μg, ex vivo, mean, n = 2–4, read-out: Heart uptake
[5] = intestine, i.v. 1 μg, ex vivo, mean, n = 2–4, read-out: Intestine uptake
[6] = liver, i.v. 1 μg, ex vivo, mean, n = 2–4, read-out: Liver uptake
[7] = lung, i.v. 1 μg, ex vivo, mean, n = 2–4, read-out: Lung uptake
[8] = muscle, i.v. 1 μg, ex vivo, mean, n = 2–4, read-out: Muscle uptake
[9] = spleen, i.v. 1 μg, ex vivo, mean, n = 2–4, read-out: Spleen uptake
[10] = i.v. 1 μg, ex vivo, mean (± SD)

Row | SMILES | tissue uptake at 2 h [1] | Relative kidney retention, % rel. to DOTA-TATE | tissue uptake at 2 h [2] | tissue uptake at 2 h [3] | tissue uptake at 2 h [4] | tissue uptake at 2 h [5] | tissue uptake at 2 h [6] | tissue uptake at 2 h [7] | tissue uptake at 2 h [8] | tissue uptake at 2 h [9] | Kidney uptake [10] | further results
1 | C[C@@H](O)[C@H](NC(=O)[C@@H]1CSSC[C@H](NC(=O)[C@@H](Cc2ccccc2)NC(=O)CCCC(=O)Nc2cc(COC(=O)N(C)CCNC(=O)CN3CCN(CC(=O)O)CCN(CC(=O)O)CCN(CC(=O)O)CC3)ccc2O[C@@H]2O[C@H](CO)[C@H](O)[C@H](O)[C@H]2O)C(=O)N[C@@H](Cc2ccc(O)cc2)C(=O)N[C@H](Cc2c[nH]c3ccccc23)C(=O)N[C@@H](CCCCN)C(=O)N[C@@H]([C@@H](C)O)C(=O)N1)C(=O)O [DOTA-β-Gal-TATE] | 4.1 %ID/g |  |  |  |  |  |  |  |  |  |  | 
2 | C[C@@H](O)[C@H](NC(=O)[C@@H]1CSSC[C@H](NC(=O)[C@@H](Cc2ccccc2)NC(=O)CCCC(=O)Nc2cc(COC(=O)N(C)CCNC(=O)CN3CCN(CC(=O)O)CCN(CC(=O)O)CCN(CC(=O)O)CC3)ccc2O[C@@H]2O[C@H](CO)[C@@H](O)[C@H](O)[C@H]2O)C(=O)N[C@@H](Cc2ccc(O)cc2)C(=O)N[C@H](Cc2c[nH]c3ccccc23)C(=O)N[C@@H](CCCCN)C(=O)N[C@@H]([C@@H](C)O)C(=O)N1)C(=O)O [^111In-DOTA-β-Glu-TATE, metal not drawn] | 6.34 %ID/g | 105% |  |  |  |  |  |  |  |  |  | tissue uptake at 2 h (in vivo, i.v. 1 μg (1.4–1.8 MBq), ex vivo gamma counting, mean, n = 2–4, read-out: Blood uptake): 0.09 %ID/g; tissue uptake at 2 h (in vivo, i.v. 1 μg, ex vivo, mean, n = 2–4, read-out: Femur uptake): 0.21 %ID/g; tissue uptake at 2 h (in vivo, i.v. 1 μg, ex vivo, mean, n = 2–4, read-out: Heart uptake): 0.07 %ID/g; tissue uptake at 2 h (in vivo, i.v. 1 μg, ex vivo, mean, n = 2–4, read-out: Intestine uptake): 1.07 %ID/g; tissue uptake at 2 h (in vivo, i.v. 1 μg, ex vivo, mean, n = 2–4, read-out: Liver uptake): 0.19 %ID/g; tissue uptake at 2 h (in vivo, i.v. 1 μg, ex vivo, mean, n = 2–4, read-out: Lung uptake): 0.51 %ID/g; tissue uptake at 2 h (in vivo, i.v. 1 μg, ex vivo, mean, n = 2–4, read-out: Muscle uptake): 0.03 %ID/g; tissue uptake at 2 h (in vivo, i.v. 1 μg, ex vivo, mean, n = 2–4, read-out: Spleen uptake): 0.16 %ID/g
3 | C[C@@H](O)[C@H](NC(=O)[C@@H]1CSSC[C@H](NC(=O)[C@@H](Cc2ccccc2)NC(=O)CNC(=O)[C@H](CC(=O)O)NC(=O)[C@H](CC(=O)O)NC(=O)[C@H](CC(=O)O)NC(=O)CNC(=O)CN2CCN(CC(=O)O)CCN(CC(=O)O)CCN(CC(=O)O)CC2)C(=O)N[C@@H](Cc2ccc(O)cc2)C(=O)N[C@H](Cc2c[nH]c3ccccc23)C(=O)N[C@@H](CCCCN)C(=O)N[C@@H]([C@@H](C)O)C(=O)N1)C(=O)O [^111In-DOTA-GDDDG-TATE, metal not drawn] ({DOTA}-GDDDG[dF]CY[dW]KTCT-OH; disulfide 7-12) |  | 222% | 0.05 %ID/g | 0.07 %ID/g | 0.04 %ID/g | 0.11 %ID/g | 0.07 %ID/g | 0.25 %ID/g | 0.02 %ID/g | 0.05 %ID/g | 13.45 %IA/g | 
4 | CSCC[C@H](NC(=O)CN1CCN(CC(=O)O)CCN(CC(=O)O)CCN(CC(=O)O)CC1)C(=O)N[C@H](C(=O)N[C@@H](CCCCN)C(=O)N[C@H](Cc1ccccc1)C(=O)N[C@H]1CSSC[C@@H](C(=O)N[C@H](C(=O)O)[C@@H](C)O)NC(=O)[C@H]([C@@H](C)O)NC(=O)[C@H](CCCCN)NC(=O)[C@@H](Cc2c[nH]c3ccccc23)NC(=O)[C@H](Cc2ccc(O)cc2)NC1=O)C(C)C [^111In-DOTA-MVK-TATE, metal not drawn] ({DOTA}-MVK[dF]CY[dW]KTCT-OH; disulfide 5-10) |  | 1251% | 0.09 %ID/g | 0.25 %ID/g | 0.07 %ID/g | 0.78 %ID/g | 0.25 %ID/g | 0.51 %ID/g | 0.02 %ID/g | 0.18 %ID/g | 75.65 %IA/g | 
5 | C[C@@H](O)[C@H](NC(=O)[C@@H]1CSSC[C@H](NC(=O)[C@@H](Cc2ccccc2)NC(=O)[C@H](Cc2ccc(O)cc2)NC(=O)CNC(=O)CN2CCN(CC(=O)O)CCN(CC(=O)O)CCN(CC(=O)O)CC2)C(=O)N[C@@H](Cc2ccc(O)cc2)C(=O)N[C@H](Cc2c[nH]c3ccccc23)C(=O)N[C@@H](CCCCN)C(=O)N[C@@H]([C@@H](C)O)C(=O)N1)C(=O)O [^111In-DOTA-GY-TATE, metal not drawn] ({DOTA}-GY[dF]CY[dW]KTCT-OH; disulfide 4-9) |  | 297% | 0.09 %ID/g | 0.14 %ID/g | 0.09 %ID/g | 0.74 %ID/g | 0.18 %ID/g | 1.07 %ID/g | 0.03 %ID/g | 0.17 %ID/g |  | 
6 | C[C@@H](O)[C@H](NC(=O)[C@@H]1CSSC[C@H](NC(=O)[C@@H](Cc2ccccc2)NC(=O)CNC(=O)[C@H](CC(=O)O)NC(=O)[C@H](CC(=O)O)NC(=O)[C@H](CC(=O)O)NC(=O)CNC(=O)CN2CCN(CC(=O)O)CCN(CC(=O)O)CCN(CC(=O)O)CC2)C(=O)N[C@@H](Cc2ccc(O)cc2)C(=O)N[C@H](Cc2c[nH]c3ccccc23)C(=O)N[C@@H](CCCCN)C(=O)N[C@@H]([C@@H](C)O)C(=O)N1)C(=O)O [DOTA-GDDDG-TATE] ({DOTA}-GDDDG[dF]CY[dW]KTCT-OH; disulfide 7-12) |  |  |  |  |  |  |  |  |  |  |  | tissue uptake at 2 h (kidney, i.v. 1 μg, ex vivo, mean (± SD), n = 2–4, read-out: Kidney uptake): 13 %ID/g
